Measurements from patent publication US8889130B2, “Treatment of osteoarthritis and pain” (Abbvie Inc., priority 2011, dated 2014).

B1: 3D12.E3-Ch: murine-human chimeric form of 3D12.E3 (anti-hIL-1α) with human constant region (antibody, V domains shown)
VH: QIQLVQSGPELKKPGETVKISCKASGYTFRNYGMNWVKQAPGKDLKRMAWINTYTGESTYADDFKGRFAFSLETSASTAYLQINNLKNEDTATYFCARGIYYYGSSYAMDYWGQGTSVTVSS
VL: NIQMTQTTSSLSASLGDRVTISCRASQDISNCLNWYQQKPDGTVKLLIYYTSRLHSGVPSRFSGSGSGTDYSLTISNLEQEDIATYFCQQGKTLPYAFGGGTKLEINR
B2: 3D12.E3: murine monoclonal antibody to human IL-1α; VH SEQ ID NO: 89, VL SEQ ID NO: 90 (antibody, listed as Mus musculus, V domains shown)
VH: B1 VH
VL: B1 VL
B3: 13F5.G5-Ch: murine-human chimeric form of 13F5.G5 (anti-hIL-1β) with human constant region (antibody, V domains shown)
VH: QVQLQQSGAELVRPGSSVKISCKASGYAFSSYWMNWVKQRPGQGLEWIGQIYPGDGDTNYNGKFKGKATLTADKSSSTSYMQLSGLTSEDSAMYFCVRFPTGNDYYAMDYWGQGTSVTVSS
VL: NIVLTQSPASLAVSLGQRATISCRASESVDSYGNSYMHWYQQKPGQPPKLLIYLASNLESGVPARFSGSGSRTDFTLTIDPVEADDAATYYCQQNNEDPFTFGSGTKLEIKR
B4: 13F5.G5: murine monoclonal antibody to human IL-1β; VH SEQ ID NO: 95, VL SEQ ID NO: 96 (antibody, listed as Mus musculus, V domains shown)
VH: B3 VH
VL: B3 VL

Assays:
[1] = molecular target: T1, hIL-1α (Homo sapiens, UniProt P01583); assay: Surface plasmon resonance (Biacore) binding kinetics and affinity to hIL-1α; conditions: antigen hIL-1α
T1 sequence (P01583 113-271): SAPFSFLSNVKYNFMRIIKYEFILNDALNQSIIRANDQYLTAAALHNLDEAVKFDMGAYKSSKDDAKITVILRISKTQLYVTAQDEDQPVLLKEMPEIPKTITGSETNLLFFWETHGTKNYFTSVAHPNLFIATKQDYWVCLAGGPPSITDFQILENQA
Experimental: (§1) The kinetics of DVD-Ig molecules binding to rhIL1-α and rhIL1-β was determined by surface plasmon resonance-based measurements with a Biacore 3000 instrument (Biacore AB, Uppsala, Sweden) using HBS-EP (10 mM HEPES, pH 7.4, 150 mM NaCl, 3 mM EDTA, and 0.005% surfactant P20) at 25° C. All chemicals were obtained from Biacore AB (Uppsala, Sweden) or otherwise from a different source as described herein. Approximately, 5000 RU of goat anti-human IgG Fcγ fragment specific polyclonal antibody (Pierce Biotechnology Inc, Rockford, Ill.) diluted in 10 mM sodium acetate (pH 4.5) was directly immobilized across a CM5 research grade biosensor chip using a standard amine coupling kit according to manufacturer's instructions and procedures at […]. Unreacted moieties on the biosensor surface were blocked with ethanolamine. Modified carboxymethyl dextran surface in flowcell 2 and 4 was used as a reaction surface. Unmodified carboxymethyl dextran without goat anti-human IgG in flow cell 1 and 3 was used as the reference surface. For kinetic analysis, rate equations derived from the 1:1 Langmuir binding model were fitted simultaneously to association and dissociation phases of all ten injections (using global fit analysis) using the Bioevaluation 4.0.1 software. Purified DVD-Ig samples were diluted in HEPES-buffered saline for capture across goat anti-human IgG Fc specific reaction surfaces and injected over reaction matrices at a flow rate of […]. The association and dissociation rate constants, kon (M-1s-1) and koff (s-1) were determined under a continuous flow rate of […]. Rate constants were derived by making kinetic binding measurements at ten different antigen concentrations ranging from 1.25 to 1000 nM. The equilibrium dissociation constant (M) of the reaction between DVD-Ig molecule and rhIL1α/β was then calculated from the kinetic rate constants by the following formula: KD=koff/kon. Aliquots of rhIL1α/β samples were also simultaneously injected over a blank reference and reaction CM surface to record and subtract any nonspecific binding background to eliminate the majority of the refractive index change and injection noise. Surfaces were regenerated with two subsequent […] injections of 10 mM Glycine (pH 1.5) at a flow rate of […]. The anti-Fc antibody immobilized surfaces were completely regenerated and retained their full capture capacity over twelve cycles. The apparent stoichiometry of the captured DVD-Ig-rhIL1α/β complex was calculated under saturating binding conditions (steady-state equilibrium) using the following formula: […]

[2] = Size exclusion chromatography (SEC): physical homogeneity and in vitro stability; format: physicochemical; conditions: 0.2-0.4 mg/ml in PBS, SEC
Experimental: For measuring molecular weight (MW) of light and heavy chains of DVD-Ig binding protein, 10 μL of DVD-Ig molecule (0.8 μg/μL) was reduced by 1.0 M DTT solution (5 μL). A PLRP-S, 8μ, 4000 A, and 1×150 mm protein column (Michrom BioResource, Auburn, Mass.) was used to separate heavy and light chains of DVD-Ig molecule. Agilent HP1100 Capillary HPLC (Agilent Technologies Inc., Pala Alto, Calif.) was used with the mass spectrometer QSTAR (Applied Biosystems, Foster City, Calif.). The valco valve was set at 10 minutes to switch the flow from waste to MS for desalting sample. Buffer A was 0.02% TFA, 0.08% FA, 0.1% ACN and 99.8% HPLC-H2O. Buffer B contained 0.02% TFA, 0.08% FA, 0.1% HPLC-H2O, and 99.8% ACN. The HPLC flow rate was 50 μL/minute and the sample injection volume was […]. The temperature of the column oven was set at 60° C., and separation gradient was: 5% B for 5 minutes; 5% B to 65% B for 35 minutes; 65% B to 95% B for another 5 minutes, and 95% B to 5% B for 5 minutes. TOFMS scan was from 800 to 2500 amu, and cycles were 3600. To determine the MW of full length DVD-Ig binding protein, a Protein MicroTrap cartridge (Michrom BioResource, Auburn, Mass.) was used for desalting the sample. The HPLC gradient was: 5% B for 5 minutes; 5% B to 95% B in 1 minute; and from 95% B to 5% B in another 4 minutes. The QSTAR TOFMS scan was from 2000 to 3500 amu, and cycles were 899. All MS raw data were analyzed using the Analyst QS software (Applied Biosystems). For SEC analysis of the DVD-Ig binding protein, purified DVD-Ig binding protein and chimeric Abs, in PBS, were applied on a Superose 6 10/300 G2, 300×10 mm column (Amersham Bioscience, Piscataway, N.J.). An HPLC instrument, Model 10A (Shimadzu, Columbia, Md.) was used for SEC. All proteins were determined using UV detection at 280 nm and 214 nm. The elution was isocratic at a flow rate of 0.5 mL/minute. For stability study, samples in the concentration range of 0.2-0.4 mg/ml in PBS underwent 3 freeze-thaw cycles between −80° C. and 25° C., or were incubated at 4° C., 25° C., or 40° C., for 4 weeks and 8 weeks, followed by SEC analysis.
In order to determine the precise molecular weight of the DVD-Ig binding proteins, mass spectrometry was employed. […] To further study the physical properties of DVD-Ig binding protein in solution, size exclusion chromatography (SEC) was used to analyze each protein.
The physical stability of DVD-Ig was tested as follows. Purified antibodies in the concentration range of 0.2-0.4 mg/ml in PBS underwent 3 freeze-thaw cycles between −80° C. and 25° C., or were incubated at 4° C., 25° C., or 40° C., for 4 weeks and 8 weeks, followed by analysis using size exclusion chromatography (SEC) analysis (see Table 12).

[3] = molecular target: hIL-1β (Homo sapiens, UniProt P01584); assay: Surface plasmon resonance (Biacore) binding kinetics and affinity to hIL-1β; conditions: antigen hIL-1β
Experimental: as §1

[4] = 3xFreeze-Thaw between −80° C. and 25° C.

Sequence of hIL-1β (P01584 117-269): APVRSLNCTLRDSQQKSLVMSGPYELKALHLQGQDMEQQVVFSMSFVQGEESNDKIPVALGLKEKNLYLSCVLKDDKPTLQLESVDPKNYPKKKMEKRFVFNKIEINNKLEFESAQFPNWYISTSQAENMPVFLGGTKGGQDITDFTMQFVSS

| Molecule | koff [1] | kon [1] | Ab (intact antibody) [2, 4] | Agg (aggregates) [2, 4] | Frgm (fragments) [2, 4] | Ab (intact antibody) ([2]; 4° C. @ 4 Wks) | Agg (aggregates) ([2]; 4° C. @ 4 Wks) | Frgm (fragments) ([2]; 4° C. @ 4 Wks) | Ab (intact antibody) ([2]; 4° C. @ 8 Wks) | Agg (aggregates) ([2]; 4° C. @ 8 Wks) | Frgm (fragments) ([2]; 4° C. @ 8 Wks) | Ab (intact antibody) ([2]; 25° C. @ 4 Wks) | Agg (aggregates) ([2]; 25° C. @ 4 Wks) | Frgm (fragments) ([2]; 25° C. @ 4 Wks) | Ab (intact antibody) ([2]; 25° C. @ 8 Wks) | Frgm (fragments) ([2]; 25° C. @ 8 Wks) | Ab (intact antibody) ([2]; 40° C. @ 4 Wks) | Agg (aggregates) ([2]; 40° C. @ 4 Wks) | Frgm (fragments) ([2]; 40° C. @ 4 Wks) | Ab (intact antibody) ([2]; 40° C. @ 8 Wks) | also measured |
| --- | --- | --- | --- | --- | --- | --- | --- | --- | --- | --- | --- | --- | --- | --- | --- | --- | --- | --- | --- | --- | --- |
| B1 | 0.000552 s⁻¹ | 412000 M⁻¹ s⁻¹ | 98.28 percentage | 1.72 percentage | 0.00 percentage | 99.15 percentage | 0.85 percentage | 0.00 percentage | 90.33 percentage | 5.35 percentage | 4.32 percentage | 98.71 percentage | 1.29 percentage | 0.00 percentage | 60.55 percentage | 38.34 percentage | 98.35 percentage | 1.65 percentage | 0.00 percentage | 81.47 percentage | Agg (aggregates) ([2]; 40° C. @ 8 Wks): 4.74 percentage; Frgm (fragments) ([2]; 40° C. @ 8 Wks): 13.79 percentage |
| B2 | 0.000713 s⁻¹ | 643000 M⁻¹ s⁻¹ | – | – | – | – | – | – | – | – | – | – | – | – | – | – | – | – | – | – | – |
| B3 | – | – | 87.0 percentage | 13.0 percentage | 0.0 percentage | 95.8 percentage | 4.2 percentage | 0.0 percentage | 97.8 percentage | 2.2 percentage | 0.0 percentage | 100.0 percentage | 0.0 percentage | 0.0 percentage | 97.5 percentage | 1.0 percentage | 78.1 percentage | 20.3 percentage | 1.6 percentage | 65.4 percentage | koff [3]: 0.000654 s⁻¹; kon [3]: 1.41e+06 M⁻¹ s⁻¹; Agg (aggregates) ([2]; 25° C. @ 8 Wks): 1.4 percentage; Agg (aggregates) ([2]; 40° C. @ 8 Wks): 34.6 percentage; Frgm (fragments) ([2]; 40° C. @ 8 Wks): 0.0 percentage |
| B4 | – | – | – | – | – | – | – | – | – | – | – | – | – | – | – | – | – | – | – | – | koff [3]: 0.000621 s⁻¹; kon [3]: 2.13e+06 M⁻¹ s⁻¹ |
